What all share (assay): SPR, antibody captured, C2 as analyte;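 also: biacore at 37 °C, anti-C2 mAbs held by immobilised goat anti-human IgG, C2 alanine or serine mutants injected, double-referenced sensorgrams fitted to a 1:1 kinetic or steady-state model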
One experiment has as its target T1, human C2 N380A (human, UniProt P06681 21-752).
T1 sequence: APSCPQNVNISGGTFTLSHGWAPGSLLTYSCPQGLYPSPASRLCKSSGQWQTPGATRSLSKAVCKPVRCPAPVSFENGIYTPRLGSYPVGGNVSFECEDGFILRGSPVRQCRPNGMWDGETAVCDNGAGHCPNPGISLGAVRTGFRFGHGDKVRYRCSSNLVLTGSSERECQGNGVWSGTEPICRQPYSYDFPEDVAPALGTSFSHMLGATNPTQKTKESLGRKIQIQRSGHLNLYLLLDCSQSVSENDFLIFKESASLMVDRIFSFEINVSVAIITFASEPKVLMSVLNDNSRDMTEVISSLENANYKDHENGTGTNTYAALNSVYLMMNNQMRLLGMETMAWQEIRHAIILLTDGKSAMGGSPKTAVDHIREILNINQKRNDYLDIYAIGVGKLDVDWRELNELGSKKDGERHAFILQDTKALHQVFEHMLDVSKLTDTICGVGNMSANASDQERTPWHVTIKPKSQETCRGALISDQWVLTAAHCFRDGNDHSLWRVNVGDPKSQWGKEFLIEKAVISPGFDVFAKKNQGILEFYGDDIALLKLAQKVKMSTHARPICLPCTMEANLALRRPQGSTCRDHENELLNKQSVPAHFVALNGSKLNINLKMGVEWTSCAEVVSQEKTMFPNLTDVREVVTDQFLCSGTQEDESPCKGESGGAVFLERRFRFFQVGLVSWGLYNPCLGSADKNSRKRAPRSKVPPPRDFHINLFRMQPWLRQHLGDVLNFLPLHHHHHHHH

In the next experiment the target is T2, human C2 N403A (human, UniProt P06681 21-752).
T2 sequence: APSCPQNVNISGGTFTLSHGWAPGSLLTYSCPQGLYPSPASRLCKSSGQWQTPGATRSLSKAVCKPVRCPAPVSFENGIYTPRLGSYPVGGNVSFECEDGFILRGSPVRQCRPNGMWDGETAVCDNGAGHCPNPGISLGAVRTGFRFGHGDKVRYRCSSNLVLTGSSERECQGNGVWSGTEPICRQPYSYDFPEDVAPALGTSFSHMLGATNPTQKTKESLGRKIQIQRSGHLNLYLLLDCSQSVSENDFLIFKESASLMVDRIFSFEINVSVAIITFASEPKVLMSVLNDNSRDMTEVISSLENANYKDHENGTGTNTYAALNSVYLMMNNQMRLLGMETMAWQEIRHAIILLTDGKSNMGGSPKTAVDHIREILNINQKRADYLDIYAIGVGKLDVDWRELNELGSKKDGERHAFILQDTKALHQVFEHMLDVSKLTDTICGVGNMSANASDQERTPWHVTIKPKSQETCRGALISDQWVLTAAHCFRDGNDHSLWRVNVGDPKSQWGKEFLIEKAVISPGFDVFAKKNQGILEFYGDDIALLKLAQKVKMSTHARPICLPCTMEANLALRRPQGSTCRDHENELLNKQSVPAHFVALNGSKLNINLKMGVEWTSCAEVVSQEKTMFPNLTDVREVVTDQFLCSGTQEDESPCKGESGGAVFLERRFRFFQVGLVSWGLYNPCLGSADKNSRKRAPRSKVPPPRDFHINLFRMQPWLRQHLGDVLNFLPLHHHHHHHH

The target in a further experiment is T3, human C2 G466A (human, UniProt P06681 21-752).
T3 sequence: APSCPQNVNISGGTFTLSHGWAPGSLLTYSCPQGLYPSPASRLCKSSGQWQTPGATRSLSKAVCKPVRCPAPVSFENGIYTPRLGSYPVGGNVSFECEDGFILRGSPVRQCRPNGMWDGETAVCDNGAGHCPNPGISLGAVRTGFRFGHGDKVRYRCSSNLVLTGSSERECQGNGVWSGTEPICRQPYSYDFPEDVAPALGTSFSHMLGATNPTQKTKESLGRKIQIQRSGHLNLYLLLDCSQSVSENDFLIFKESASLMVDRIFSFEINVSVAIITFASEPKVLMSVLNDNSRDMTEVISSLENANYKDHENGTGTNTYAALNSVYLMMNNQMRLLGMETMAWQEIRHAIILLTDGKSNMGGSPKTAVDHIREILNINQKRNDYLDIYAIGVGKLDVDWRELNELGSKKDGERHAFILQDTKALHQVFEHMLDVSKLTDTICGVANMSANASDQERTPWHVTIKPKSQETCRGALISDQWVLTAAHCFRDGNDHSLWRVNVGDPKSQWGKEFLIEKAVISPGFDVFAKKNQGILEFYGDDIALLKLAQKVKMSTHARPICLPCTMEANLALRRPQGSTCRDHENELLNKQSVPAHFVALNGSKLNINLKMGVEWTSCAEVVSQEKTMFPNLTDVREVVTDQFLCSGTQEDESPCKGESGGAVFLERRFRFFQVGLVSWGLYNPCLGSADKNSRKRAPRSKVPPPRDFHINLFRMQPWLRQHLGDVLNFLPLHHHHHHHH

Another experiment addresses T4, human C2 I320A (human, UniProt P06681 21-752).
T4 sequence: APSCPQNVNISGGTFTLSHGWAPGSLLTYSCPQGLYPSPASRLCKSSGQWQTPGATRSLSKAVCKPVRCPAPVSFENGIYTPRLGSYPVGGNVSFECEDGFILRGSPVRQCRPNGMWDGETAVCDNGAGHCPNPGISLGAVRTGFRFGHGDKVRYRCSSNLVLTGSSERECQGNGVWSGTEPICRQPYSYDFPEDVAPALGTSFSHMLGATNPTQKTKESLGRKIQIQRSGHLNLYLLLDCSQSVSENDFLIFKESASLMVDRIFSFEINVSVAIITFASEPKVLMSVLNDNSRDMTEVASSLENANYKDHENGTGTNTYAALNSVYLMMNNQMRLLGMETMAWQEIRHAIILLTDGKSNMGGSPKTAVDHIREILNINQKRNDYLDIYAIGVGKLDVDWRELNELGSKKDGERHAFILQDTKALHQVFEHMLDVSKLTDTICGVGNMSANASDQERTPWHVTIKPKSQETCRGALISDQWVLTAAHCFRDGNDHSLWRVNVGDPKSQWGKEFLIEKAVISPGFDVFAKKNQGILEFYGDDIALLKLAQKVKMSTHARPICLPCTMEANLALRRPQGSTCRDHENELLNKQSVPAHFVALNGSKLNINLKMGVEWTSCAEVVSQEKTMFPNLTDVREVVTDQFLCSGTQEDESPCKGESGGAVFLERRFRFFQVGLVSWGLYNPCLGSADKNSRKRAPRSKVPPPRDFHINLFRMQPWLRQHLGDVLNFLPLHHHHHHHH

B1: RF16-242 (antibody, human IgG4 S228P, lambda, V domains shown)
VH: EVQLLQSGAEVKKPGESLKISCKGSGYSFTSYWIGWVRQMPGKGLEWMGIIYPGDSDTRYSPSFQGQVTISADKSISTAYLQWSSLKASDTAMYYCARRGHYGDYFDYWGQGTLVTVSS
VL: SYELTQPPSVSVSPGQTARITCSGDALPKKYAYWYHQKSGQAPVLVIYEDRRRPSEIPERFSGSSSGTMATLTITGAQVEDEGVYFCYSRDRAGNQRVFGGGTQLTVLG
notes: pH-dependent anti-C2 antibody from a phage display library
In general, Kd refers to the constant that tells how readily two partners part at equilibrium. Higher therefore signals a looser complex. Consider B1, for which the Kd stood at 10.2 nM with human C2 N380A, 8.2 nM with human C2 N403A, 24.9 nM with human C2 G466A and 73.5 nM with human C2 I320A.

(Values after patent publication US20220332804A1 (CSL INNOVATION, published 2022).)
